Data reported in patent US20090286854A1, “APTAMERS DIRECTED TO MUCI” (The Open University, published 2009).

What was measured:
[1] = target: 5TR MUC1 recombinant protein (human); experiment: affinity chromatography, elution from the MUC1 chromatography matrix
[2] = target: MUC1 5TR glycosylated with GalNAc (Tn antigen) (Homo sapiens, UniProt P15941 P15941:161-260); experiment: pulldown; Ni-NTA magnetic beads, 100 mM NaCl, 5 mM MgCl2, pH 7.4, 37 C; values in figure only; conditions: tags: 6xHis; expressed in E. coli BL21; glycosylated in vitro with ppGalNAc-T1
Description: The Qiagen kit containing agarose magnetic beads in the proportion of 5% solution coated with nickel for His-tag purification was used for the assay. Seven tubes each containing 900 μl of start buffer (100 mM NaCl₂, 5 mM MgCl₂, pH 7.4) used to resuspend a 10 μM solution of glycosylated MUC1 5TR peptide were prepared according to manufacturer's instructions:
10 μl of the 5% beads solution was added to the solution and incubated at 4° C. for half an hour with shaking, After 30 minutes, supernatant was removed. The beads were washed by adding start buffer, allowing 1-5 min of washing time. 1 mM (500 μl) of each Glycosylated MUC1 aptamer solution in start buffer were added to the previously prepared magnetic beads containing his-tagged glycosylated MUC1. The solution containing complexed beads and aptamer solution were allowed to incubate at 37° C. for 1 hour with shaking.
After one hour the supernatant was removed and its absorbance was measured using a UV spectrometer (Eppendorf, USA) at 260 nm. The remaining Magnetic beads were washed three times with 500 μl of wash buffer (150 mM NaCl₂, 5 mM MgCl₂, pH 7.4). The supernatant was removed and 50 μl of elution buffer (1.5M NaCl₂, 5mM MgCl₂, pH 7.4) were added. The elution buffer was allowed to incubate with magnetic beads for 5 min with shaking. The magnetic beads were spun for 30 seconds at 4000 rpm to a pellet. The magnetic beads were attracted by a magnetic bar and supernatant was removed. The eluted supernatant was removed and measured using a UV spectrometer (Eppendorf, USA) 260 absorbance.

[3] = target: T1, MUC1 5TR (five tandem repeat recombinant MUC1, unglycosylated) (Homo sapiens, UniProt P15941 P15941:161-260); experiment: SPR; 100 mM NaCl, 5 mM MgCl2, pH 7.4; printed ka and kd would give 0.69 nM; conditions: tags: 6xHis; expressed in E. coli BL21; biotin-XX labelled for SPR; about 11.8 kDa
Description: (§1) Biotinylated 5TR-MUC1 protein was immobilised on a BIAcore SA sensor chip (gold-streptavidin) and the system was optimised to reduce mass transport, steric hindrance, crowding, avidity and aggregation. A range of peptide concentrations, ranging from 1 μM to 1 nM were tested under different injection times and the optimum conditions used were 100 μL of 1 nM peptide in running buffer perfused over each individual channel at the rate of 25 μL/min for […]. Chip regeneration to peptide level was followed by the subsequent application of a 30 sec pulse with a solution of 10 mM NaOH. The aptamers were prepared in their selection buffers (phosphate buffer containing 100 mM NaCl, 5 mM MgCl₂, pH 7.4) at 1 μM and were applied with 30 sec injections with a 5 sec wash step with selection buffer to allow for non-specific analyte removal. The chip surfaces were regenerated (elution step) by the application of a 10 μL pulse of 1.5 M NaCl, 5 mM MgCl₂, pH 7.4.
(§2) The experimental BIAcore data were fitted to two mathematical equations for the determination of association (kₐ) and dissociation constants (kd) using non-linear regression analysis. […]
(§3) The concentration of free aptamer was assumed to be constant since an excess amount was applied to the system when compared to the amount of MUC1. […] The Kd was calculated from the following relationship: Kd is equal to kd/kₐ. […]

[4] = target: T1, MUC1 5TR (five tandem repeat …); experiment: SPR; 100 mM NaCl, 5 mM MgCl2, pH 7.4; printed ka and kd would give 0.85 nM; p17 and claim list print SEQ 2 with 3' G instead of C; conditions: tags: 6xHis; expressed in E. coli BL21; biotin-XX labelled for SPR; about 11.8 kDa
Description: as §1, §2, §3

[5] = target: T1, MUC1 5TR (five tandem repeat …); experiment: SPR; 100 mM NaCl, 5 mM MgCl2, pH 7.4; printed ka and kd would give 0.83 nM; conditions: tags: 6xHis; expressed in E. coli BL21; biotin-XX labelled for SPR; about 11.8 kDa
Description: as §1, §2, §3

[6] = target: T1, MUC1 5TR (five tandem repeat …); experiment: SPR; 100 mM NaCl, 5 mM MgCl2, pH 7.4; printed ka 0.207e7, kd 0.00098 would give 0.47 nM; conditions: tags: 6xHis; expressed in E. coli BL21; biotin-XX labelled for SPR; about 11.8 kDa
Description: as §1, §2, §3

T1 sequence (P15941 141-240, one chain of several): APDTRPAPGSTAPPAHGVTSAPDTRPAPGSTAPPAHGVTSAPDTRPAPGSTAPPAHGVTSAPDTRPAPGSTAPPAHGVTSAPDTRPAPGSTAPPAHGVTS
MUC1 5TR glycosylated with GalNAc (Tn antigen), sequence (P15941 141-240, one chain of several): as above
5TR MUC1 recombinant protein (human), sequence (main, as listed by the source): as the sequence (P15941 141-240, one chain of several) above

**Q.** C595 anti-MUC1 monoclonal antibody was tested. Which NaSCN concentration at elution from the affinity matrix [1] did it give?
**A.** 0.8 M

B1: 5TR-T5 (ssDNA)
DNA: AGTGGTGGTTTTATAAGACTGATAC
**Q.** Does B1 bind [2]?
**A.** binds

B2: MUC1 5TR-4 (ssDNA)
DNA: TACTGCATGCACACCACTTCAACTA
**Q.** Which Kd [3] does the source give for B2 here?
**A.** 69 nM

B3: 5TR-T1 (ssDNA)
DNA: GGGTTATATTACTCGGCCGGTGTAA
**Q.** Does B3 bind [2]?
**A.** binds

B4: MUC1 5TR-2 (ssDNA)
DNA: GGCTATAGCACATGGGTAAAACGAC
**Q.** How did the Kd [4] turn out when B4 was run?
**A.** 85.2 nM

B5: 5TR-T4 (ssDNA)
DNA: GCTGGGTAAATAGATGATTCCCGGC
**Q.** Does B5 bind [2]?
**A.** binds

B6: 5TR-T3 (ssDNA)
DNA: GGCGTACGGTAGGCGGGGTCAACTG
**Q.** Does B6 bind [2]?
**A.** binds

B7: MUC1 5TR-3 (ssDNA)
DNA: CAAACAATCAAACAGCAGTGGGGTG
**Q.** With B7 as the molecule, how does the Kd [5] read?
**A.** 83 nM

B8: 5TR-T7 (ssDNA)
DNA: CGGTCTACGGAGCCGCGTTAAACTT
**Q.** Does B8 bind [2]?
**A.** binds

B9: 5TR-T6 (ssDNA)
DNA: TAGCCTTAATGCCTTTGTAAGGCGA
**Q.** Does B9 bind [2]?
**A.** binds

B10: MUC1 5TR-1 (ssDNA)
DNA: GAAGTGAAAATGACAGAACACAACA
**Q.** How did the Kd [6] turn out when B10 was run?
**A.** 47.3 nM
